B1: Lysine-specific demethylase hairless (Mus musculus), Q61645 (parent)
chain: MESMPSFLKDTPAWEKTAPVNGIVGQEPGTSPQDGLRHGALCLGEPAPFWRGVLSTPDSWLPPGFLQGPKDTLSLVEGEGPRNGERKGSWLGGKEGLRWKEAMLAHPLAFCGPACPPRYGPLIPEHSGGHPKSDPVAFRPLHCPFLLETKILERAPFWVPTCLPPYLMSSLPPERPYDWPLAPNPWVYSGSQPKVPSAFGLGSKGFYHKDPNILRPAKEPLAESGMLGLAPGGHLQQACESEGPSLHQRDGETGAGRQQNLCPVFLGYPDTVPRAPWPSCPPGLVHSLGNIWAGPGSNSLGYQLGPPATPRCPSPGPPTPPGGCCSSHLPAREGDLGPCRKCQDSPEGGSSGPGESSEERNKADSRACPPSHHTKLKKTWLTRHSEQFECPGGCSGKEESPATGLRALKRAGSPEVQGASRGPAPKRPSHPFPGTGRQGARAWQETPETIIGSKAEAEQQEEQRGPRDGRIRLQESRLVDTSCQHHLAGVTQCQSCVQAAGEVGVLTGHSQKSRRSPLEEKQLEEEDSSATSEEGGGGPGPEASLNKGLAKHLLSGLGDRLCRLLRKEREALAWAQREGQGPAMTEDSPGIPHCCSRCHHGLFNTHWRCSHCSHRLCVACGRIAGAGKNREKTGSQEQHTDDCAQEAGHAACSLILTQFVSSQALAELSTVMHQVWAKFDIRGHCFCQVDARVWAPGDGGQQKEPTEKTPPTPQPSCNGDSNRTKDIKEETPDSTESPAEDGAGRSPLPCPSLCELLASTAVKLCLGHDRIHMAFAPVTPALPSDDRITNILDSIIAQVVERKIQEKALGPGLRAGSGLRKGLSLPLSPVRTRLSPPGALLWLQEPRPKHGFHLFQEHWRQGQPVLVSGIQKTLRLSLWGMEALGTLGGQVQTLTALGPPQPTNLDSTAFWEGFSHPETRPKLDEGSVLLLHRTLGDKDASRVQNLASSLPLPEYCAHQGKLNLASYLPLGLTLHPLEPQLWAAYGVNSHRGHLGTKNLCVEVSDLISILVHAEAQLPPWYRAQKDFLSGLDGEGLWSPGSQTSTVWHVFRAQDAQRIRRFLQMVCPAGAGTLEPGAPGSCYLDAGLRRRLREEWGVSCWTLLQAPGEAVLVPAGAPHQVQGLVSTISVTQHFLSPETSALSAQLYHQGASLPPDHRMLYAQMDRAVFQAVKAAVGALQEAK

Variants of: B1
Conditions: with Thrb

Variant	effect of a mutation on the interaction
D1005N	with no effect
